Data reported in US20080058636A1, “METHODS OF MYOCARDIAL IMAGING” (Epix Pharmaceuticals, Inc., priority 2005, published 2008).
Bridge positions count the residues as written; N and C are the ends. Square brackets hold non-standard residues; d marks the D form. Ends that are not written are not given here. bb‑DTPA gadolinium tetramer = not defined here

Experiments:
[1] = target: T1, dried human collagen type I (Homo sapiens, UniProt P02452+P08123); test: Dried collagen assay (DCA), human collagen; format: binding; details: 5 μM peptide in PBS pH 7.4, 2 hours at room temperature; percent bound
T1 construct: Acid soluble human collagen extracted from placenta; purchased Sigma C7774; host or cells: human placenta (tissue extract)
Protocol: Acid soluble human collagen extracted from placenta (Sigma, cat# C7774, lot# 083K375) is dissolved in 15 mM HCl (3.5 mg/ml) by vortexing and gently shaking for 3-4 hours at 4° C. The acid soluble collagen is dissolved against PBS, pH 7.4 (three buffer exchanges are used). […] Percent gelation (fibril formation) of the collagen is determined by incubating 10 μM collagen (3.3 mg/ml) at 37° C. for 6 hours.

[2] = target: T2, dried rat collagen type I (Rattus norvegicus, UniProt P02454+P02466); test: Dried collagen assay (DCA), rat collagen; format: binding; details: for % Collagen Binding, Dried Rat: 5 μM peptide in PBS pH 7.4, 2 hours at room temperature, percent bound
T2 construct: Rat collagen (acid soluble, type I, rat tail, Upstate USA, Inc, cat# 08-115); purchased Upstate USA, Inc 08-115; host or cells: rat tail (tissue extract)
Protocol: Peptides identified using the phage-display protocol were screened using dried collagen assays (DCA) as described in A.-D. below.
For the final assay, a 1:10 volume of 10×PBS (100 mM NaH2PO4, 1.5 M NaCl pH 7.4) is added to the collagen solution (final 1×PBS) and incubated at 37° C. for 2 hours.
An additional 90 μL is reserved in a HPLC glass vial as a measure of the total concentration.

[3] = MR phantom study: T1 of samples at 0.47 Tesla; format: physicochemical
Protocol: Acid soluble human collagen type I extracted from placenta (Sigma, cat# C7774, lot#083K375) was dissolved in 15 mM HCl (3.5 mg/mL) by vortexing and gently shaking for 3-4 hours at 4° C. The acid soluble collagen was dialyzed against PBS (pH 7.4). Protein concentration was determined by the BCA method (Pierce, Cat#23225) using bovine collagen (Vitrogen, cat#FXP-019) as a reference standard. The final collagen concentration for the stock solution was 9 μM.
Rat collagen (acid soluble, type I, rat tail, Upstate USA, Inc. Cat# 08-115) was dialyzed against 10 mM Phosphate buffer (NaH2PO4, pH 4.2). The final collagen concentration for the stock solution was approx. 12 μM.
(§1) Samples: • 1. […] Sample prepared as sample 2, but centrifuged to separate insoluble rat collagen gel • 5. Sample prepared as sample 3, but centrifuged to separate insoluble human collagen gel • 6. 27 μM GdDTPA solution in PBS, pH 7.4 • 7. 27 μM GdDTPA in a solution of 5.0 μM rat type I collagen in 10 mM phosphate buffer, pH 5 incubated at 37° C. overnight to form a gel • 8. Sample prepared as in sample 7, but centrifuged to separate insoluble rat collagen gel • 9. Homogeneous gel of 5 μM rat collagen • 10. Homogeneous gel of 7.5 μM human collagen
T1 was determined for samples 1, 2, 3, 6, 7, 9, 10 at 0.47 Tesla using a Bruker NMS120 minispec NMR analyzer operating at 37° C.

rat type I collagen gel = target: T3, rat type I collagen gel (Rattus norvegicus, UniProt P02454+P02466); test: MR phantom imaging of collagen gel samples at 4.7 T
T3 construct: Rat collagen (acid soluble, type I, rat tail, Upstate USA, Inc, cat# 08-115); purchased Upstate USA, Inc 08-115; host or cells: rat tail (tissue extract)
Protocol: as §1
Samples for imaging were placed in glass tubes that were in turn placed in tubes containing water. Images were acquired at 4.7 T on a Bruker Biospec Imager using a Multi-Slice Multi-Echo Method with variable Relaxation Delay (MSMEVTR) experiment. The spin echo time and the relaxation delay were set to TE=11.2 ms and TR=500 ms, respectively with a flip angle of 30°. Images were acquired of sample 2, sample 4, sample 7, and sample 8. […] Sample 7 and 8 show uniform signal intensity.

[4] = Biodistribution (heart, blood) after tail vein injection, radiotracer counting; format: in vivo, Sprague-Dawley rats; details: for Blood (% ID/g) / Heart (% ID/g): rat, 0.5 μmol/kg tail vein
Protocol: Concentration estimates were decay corrected. Studies were performed at least in duplicate.

[5] = system: perfused Langendorff rat heart; test: Washout kinetics from perfused Langendorff rat heart; details: for fraction of compound present at 0 minutes post infusion that remains at 10 minutes: 10 minutes after infusion
Protocol: A K-H buffer filled 20 Gauge needle was inserted into the apex of the heart penetrating into the bottom of the chamber. This was attached to a pressure transducer used to record and monitor heart function. Perfusion pressure (60 mmHg) was monitored using a second transducer. The heart was perfused at a constant flow rate of 10-12 mL/min with 37° C. […] The heart was paced at 300 beats/min.
A Langendorff rat heart preparation was perfused with K-H buffer at a rate of 10-12 mL/min. […] After the infusion was finished, the heart was either removed or perfusion was allowed to continue for an additional 10 minutes and then the heart was removed. The perfusion buffer was not recirculated through the heart. After removal of any connective tissue, the heart was opened, fluid in the chambers drained, and the interior blotted dry with filter paper. […] An aliquot of the K-H buffer was also weighed and counted. Concentration estimates were decay corrected. Studies were performed at least in duplicate.

[6] = system: perfused Langendorff rat heart; test: Equilibrium binding to perfused Langendorff rat heart; details: for Heart: 10 minutes recirculating perfusion; for heart uptake relative to GdDTPA: perfused rat heart
Protocol: After deep anesthesia with pentobarbital (80 mg/kg ip), the chest cavity of a male Sprague Dawley rat (300 g) was opened, retracted and the heart was removed immediately and placed in an ice-cold normal Krebs-Henseleit (K-H) solution (NaCl, 118 mM; KCl, 4.7 mM; CaCl2, 2.5 mM; MgSO4, 1.2 mM; KH2PO4, 1.2 mM; NaHCO3, 25 mM; glucose, 5.5 mM). A K-H buffer filled 20 Gauge needle was inserted into the apex of the heart penetrating into the bottom of the chamber. This was attached to a pressure transducer used to record and monitor heart function. Perfusion pressure (60 mmHg) was monitored using a second transducer. The heart was perfused at a constant flow rate of 10-12 mL/min with 37° C. Krebs-Henseleit buffer saturated with a mixture of 95% O2 and 5% CO2 gas. The heart was paced at 300 beats/min.
Two peptide test articles, a high collagen binding peptide (SEQ ID NO: 144) and a low collagen binding peptide (SEQ ID NO: 173), are compared to GdDTPA. The appropriate test article was added to the K-H buffer solution to a total concentration of either 3 or 30 μM. Also added to the K-H buffer was a radiotracer analog of each peptide or GdDTPA. For the peptides, the radiotracer was an aliquot of the appropriate I-125 labeled peptide derivative (see Example 5 for protocol). For GdDTPA, the tracer added was Tc-99m labeled DTPA. The amount of radioactivity added to the buffer solution was 1-5 μCi.
The heart was perfused for a period of 10 minutes and the perfusion solution was recycled through the heart. The total volume of K-H buffer used was 50-60 mL. After 10 min, the heart was removed from the apparatus and any connective tissue was removed. The heart was opened, fluid in the chambers drained, and the interior blotted dry with filter paper. The heart was then weighed and the radioactivity in the heart measured with a Packard Cobra 5003 Gamma Scintillation counter. An aliquot of the K-H buffer was also weighed and counted. Studies were performed at least in duplicate.
The dual peptide gadolinium tetramer (Compound ID 803) was compared to GdDTPA. Compound ID 803 and GdDTPA were added to the K-H buffer solution to a total concentration of 3 μM. Also added to the K-H buffer was a radiotracer analog of Compound ID 803 or GdDTPA. For Compound ID 803, the radiotracer was an aliquot of the In-111 labeled compound. For GdDTPA, the tracer added was Tc-99m labeled DTPA. The amount of radioactivity added to the buffer solution was 1-5 μCi.

T1 sequence (P02452 162-1218 limits assumed): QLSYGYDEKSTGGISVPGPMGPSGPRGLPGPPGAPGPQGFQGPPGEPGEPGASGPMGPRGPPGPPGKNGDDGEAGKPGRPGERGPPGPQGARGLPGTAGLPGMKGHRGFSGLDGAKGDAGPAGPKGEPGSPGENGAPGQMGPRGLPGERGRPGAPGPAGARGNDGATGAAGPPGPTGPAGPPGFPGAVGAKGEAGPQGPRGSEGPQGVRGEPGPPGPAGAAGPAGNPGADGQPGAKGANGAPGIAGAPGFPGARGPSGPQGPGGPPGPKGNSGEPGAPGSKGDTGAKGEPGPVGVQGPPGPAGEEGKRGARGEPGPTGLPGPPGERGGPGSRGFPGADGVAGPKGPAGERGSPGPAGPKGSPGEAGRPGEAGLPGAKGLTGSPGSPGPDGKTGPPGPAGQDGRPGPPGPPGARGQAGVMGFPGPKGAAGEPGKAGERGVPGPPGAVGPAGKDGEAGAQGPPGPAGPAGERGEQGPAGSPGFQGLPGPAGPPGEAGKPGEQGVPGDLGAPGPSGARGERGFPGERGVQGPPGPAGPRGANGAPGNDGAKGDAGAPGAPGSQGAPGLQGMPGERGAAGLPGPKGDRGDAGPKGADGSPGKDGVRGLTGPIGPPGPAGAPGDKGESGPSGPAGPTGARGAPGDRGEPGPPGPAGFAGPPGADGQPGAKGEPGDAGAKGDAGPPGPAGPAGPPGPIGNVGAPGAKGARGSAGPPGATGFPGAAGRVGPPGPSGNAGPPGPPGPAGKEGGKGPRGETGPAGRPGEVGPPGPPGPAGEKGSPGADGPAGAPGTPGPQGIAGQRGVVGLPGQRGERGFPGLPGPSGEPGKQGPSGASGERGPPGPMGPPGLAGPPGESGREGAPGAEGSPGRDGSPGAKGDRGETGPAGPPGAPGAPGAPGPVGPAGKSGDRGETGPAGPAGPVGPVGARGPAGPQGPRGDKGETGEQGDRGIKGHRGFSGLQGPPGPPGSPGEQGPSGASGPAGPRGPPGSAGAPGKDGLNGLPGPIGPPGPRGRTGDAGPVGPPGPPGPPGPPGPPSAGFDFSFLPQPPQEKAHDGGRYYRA
T1 sequence (P08123 80-1119 limits assumed): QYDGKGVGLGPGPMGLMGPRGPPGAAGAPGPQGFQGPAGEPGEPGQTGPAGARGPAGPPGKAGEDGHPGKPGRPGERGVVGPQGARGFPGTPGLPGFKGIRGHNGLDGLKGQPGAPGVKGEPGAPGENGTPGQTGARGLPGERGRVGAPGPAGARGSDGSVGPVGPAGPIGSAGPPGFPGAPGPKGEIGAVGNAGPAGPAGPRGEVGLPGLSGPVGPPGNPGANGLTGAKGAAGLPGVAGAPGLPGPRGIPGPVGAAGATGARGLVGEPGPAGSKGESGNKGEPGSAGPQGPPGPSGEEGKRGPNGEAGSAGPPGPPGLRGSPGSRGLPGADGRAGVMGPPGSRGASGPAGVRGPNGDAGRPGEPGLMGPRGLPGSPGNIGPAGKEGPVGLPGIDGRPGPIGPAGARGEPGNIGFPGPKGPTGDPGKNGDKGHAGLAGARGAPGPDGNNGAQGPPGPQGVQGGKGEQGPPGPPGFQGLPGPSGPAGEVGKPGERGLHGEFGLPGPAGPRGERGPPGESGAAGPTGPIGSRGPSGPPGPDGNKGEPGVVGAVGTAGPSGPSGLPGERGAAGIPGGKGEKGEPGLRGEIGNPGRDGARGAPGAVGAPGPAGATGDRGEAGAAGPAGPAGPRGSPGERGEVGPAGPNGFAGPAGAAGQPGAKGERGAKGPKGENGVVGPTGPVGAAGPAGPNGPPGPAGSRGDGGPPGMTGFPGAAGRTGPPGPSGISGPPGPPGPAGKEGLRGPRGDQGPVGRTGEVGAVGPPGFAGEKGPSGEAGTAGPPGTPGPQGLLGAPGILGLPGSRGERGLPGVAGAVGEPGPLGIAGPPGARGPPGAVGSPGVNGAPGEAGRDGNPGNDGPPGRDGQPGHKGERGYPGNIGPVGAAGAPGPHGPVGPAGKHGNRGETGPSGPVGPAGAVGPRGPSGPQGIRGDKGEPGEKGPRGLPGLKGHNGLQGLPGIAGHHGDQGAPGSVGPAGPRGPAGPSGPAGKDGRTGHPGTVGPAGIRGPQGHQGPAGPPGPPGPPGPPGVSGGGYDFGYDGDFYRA
T2 sequence (P02454 152-1207 limits assumed): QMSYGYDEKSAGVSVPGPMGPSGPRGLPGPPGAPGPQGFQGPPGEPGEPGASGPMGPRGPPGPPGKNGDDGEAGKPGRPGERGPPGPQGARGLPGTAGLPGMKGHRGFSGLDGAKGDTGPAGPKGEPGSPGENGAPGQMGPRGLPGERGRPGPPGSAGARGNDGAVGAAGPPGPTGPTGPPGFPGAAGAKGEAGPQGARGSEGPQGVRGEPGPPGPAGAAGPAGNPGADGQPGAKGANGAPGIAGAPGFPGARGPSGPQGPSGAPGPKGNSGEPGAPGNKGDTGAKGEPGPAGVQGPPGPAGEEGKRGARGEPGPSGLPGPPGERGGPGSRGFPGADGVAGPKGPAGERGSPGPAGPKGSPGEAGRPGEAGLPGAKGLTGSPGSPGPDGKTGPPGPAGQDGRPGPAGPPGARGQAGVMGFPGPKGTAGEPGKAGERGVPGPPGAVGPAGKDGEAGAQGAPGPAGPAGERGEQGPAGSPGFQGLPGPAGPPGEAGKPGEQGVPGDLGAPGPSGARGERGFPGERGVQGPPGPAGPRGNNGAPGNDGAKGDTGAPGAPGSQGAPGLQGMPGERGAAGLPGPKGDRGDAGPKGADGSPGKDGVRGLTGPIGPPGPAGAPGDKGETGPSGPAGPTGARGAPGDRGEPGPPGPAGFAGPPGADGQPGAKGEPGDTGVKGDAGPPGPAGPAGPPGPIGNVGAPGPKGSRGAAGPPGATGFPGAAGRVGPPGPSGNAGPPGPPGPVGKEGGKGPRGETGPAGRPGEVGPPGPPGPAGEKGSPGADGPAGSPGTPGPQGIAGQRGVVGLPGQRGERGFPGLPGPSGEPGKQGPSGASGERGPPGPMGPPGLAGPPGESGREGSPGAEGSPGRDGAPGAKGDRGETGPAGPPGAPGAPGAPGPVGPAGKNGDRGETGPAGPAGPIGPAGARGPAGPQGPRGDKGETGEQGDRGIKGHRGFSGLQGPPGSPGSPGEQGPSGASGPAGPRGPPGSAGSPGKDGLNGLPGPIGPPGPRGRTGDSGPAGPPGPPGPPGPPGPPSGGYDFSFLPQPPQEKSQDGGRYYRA
T2 sequence (P02466 86-1125 limits assumed): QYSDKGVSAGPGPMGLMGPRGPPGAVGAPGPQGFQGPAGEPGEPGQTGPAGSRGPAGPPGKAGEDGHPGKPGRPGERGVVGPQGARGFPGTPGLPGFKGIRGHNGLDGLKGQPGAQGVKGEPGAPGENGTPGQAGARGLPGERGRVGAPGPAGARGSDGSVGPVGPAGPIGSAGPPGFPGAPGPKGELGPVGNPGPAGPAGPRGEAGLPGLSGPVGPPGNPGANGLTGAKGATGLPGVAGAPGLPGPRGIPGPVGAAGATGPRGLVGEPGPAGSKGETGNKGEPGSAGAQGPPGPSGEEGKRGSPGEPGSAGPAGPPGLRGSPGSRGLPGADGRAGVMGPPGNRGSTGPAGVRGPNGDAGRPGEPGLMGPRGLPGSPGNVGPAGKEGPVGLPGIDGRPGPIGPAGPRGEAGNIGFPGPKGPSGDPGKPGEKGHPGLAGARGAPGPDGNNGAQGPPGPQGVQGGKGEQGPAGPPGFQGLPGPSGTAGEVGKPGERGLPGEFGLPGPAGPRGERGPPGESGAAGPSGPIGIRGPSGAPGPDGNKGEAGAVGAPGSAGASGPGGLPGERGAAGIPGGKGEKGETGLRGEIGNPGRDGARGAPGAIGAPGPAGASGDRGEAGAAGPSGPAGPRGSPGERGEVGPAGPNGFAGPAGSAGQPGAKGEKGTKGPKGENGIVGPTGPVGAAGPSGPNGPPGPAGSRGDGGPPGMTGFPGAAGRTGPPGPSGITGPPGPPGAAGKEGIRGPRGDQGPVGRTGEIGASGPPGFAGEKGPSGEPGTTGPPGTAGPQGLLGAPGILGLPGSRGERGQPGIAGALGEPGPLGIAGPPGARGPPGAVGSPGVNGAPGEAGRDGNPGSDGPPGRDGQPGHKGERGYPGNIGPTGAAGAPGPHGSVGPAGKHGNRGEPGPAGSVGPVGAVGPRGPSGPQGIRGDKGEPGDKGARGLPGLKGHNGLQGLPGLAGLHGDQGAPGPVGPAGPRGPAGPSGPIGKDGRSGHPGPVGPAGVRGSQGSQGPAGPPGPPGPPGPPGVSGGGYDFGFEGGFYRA
T3 sequence (P02454 152-1207 limits assumed): as the sequence (P02454 152-1207 limits assumed) above
T3 sequence (P02466 86-1125 limits assumed): as the sequence (P02466 86-1125 limits assumed) above

Substance | Dried Human Collagen Binding [1] | % Collagen Binding, Dried Rat [2] [%] | other results
175 (QWTCSGDEYTWHCNYE) [compound 175] | 2% | 2 | –
163 (YHACYQAGCWIW) [compound 163] | – | 53 | –
38 (GWSCHGDAADWPCQWS; disulfide 4-13 (inferred)) [compound 38] | 6% | – | –
174 (QWTCSGDEYTWHCNYE) [compound 174] | 5% | – | –
173 (QWTCSGDEYTWHCNYE) [compound 173] | 5% | 4 | –
147 (QWTCSGDEYTAHCNYE) [compound 147] | 5% | – | –
Glu-DTPA-Gd-G.Q.W.H.C.T.T.R.F.P.H.H.Y.C.L.Y.G-PEG-H (GQWHCTTRFPHHYCLYG; disulfide 5-14 (inferred); not fully specified (N-terminus, C-terminus); also: Gd complex of DTPA) [SEQ ID NO. 186] | – | – | T1 ([3]; in 5.0 μM rat collagen gel, 10 μM Compound ID 1022 or 27 μM GdDTPA, 37° C.): 2.370 s; T1 ([3]; in 7.5 μM human collagen gel, 10 μM Compound ID 1022, 37° C.): 2.100 s; T1 ([3]; in PBS pH 7.4, 10 μM Compound ID 1022 or 27 μM GdDTPA, 37° C.): 2.375 s; MR signal of centrifuged collagen gel pellet versus supernatant (rat type I collagen gel): the pellet for sample 4 was much brighter than the supernatant
36 (SWSCGGDHNAWKCQYS; disulfide 4-13 (inferred)) [compound 36] | 7% | – | –
112 (AKACSVHDEFGCLIS; disulfide 4-12 (inferred)) [compound 112] | 9% | – | –
168 (QWTCSGDEYTWHCNYE) [compound 168] | 3% | 2 | –
166 (QWTCSGDEYTWHCNYE) [compound 166] | 2% | 3 | –
176 (QWTCSGDEYTWHCNYE) [compound 176] | 2% | 2 | –
74 (QWHCTTRFPHHYCLYG) [compound 74] | 67-69% | – | –
3 (PWWCHEMPSMCFGF) [compound 3] | 2% | – | –
2 (WGWCEWAQNNCWNY) [compound 2] | 14% | – | –
137 (YHACYQAGCWAW; disulfide 4-9 (inferred)) [compound 137] | – | 7 | –

Substance | Dried Human Collagen Binding [1] | % Collagen Binding, Dried Rat [2] [%] | other results
113 (FSECVWVNAYQCEYF; disulfide 4-12 (inferred)) [compound 113] | 3% | – | –
Q W T C S G D A Y T W H C N Y E (QWTCSGDAYTWHCNYE) [SEQ ID NO. 144] | – | – | Heart:Blood ([4]; 1 min post injection): 0.38; Heart:Blood ([4]; 5 min post injection): 1.08; Blood (% ID/g) ([4]; 1 min post injection): 1.8 ± 0.2 % ID/g; Heart (% ID/g) ([4]; 1 min post injection): 0.68 ± 0.01 % ID/g; Blood (% ID/g) ([4]; 5 min post injection): 0.46 ± 0.07 % ID/g; Heart (% ID/g) ([4]; 5 min post injection): 0.50 ± 0.16 % ID/g; Heart (% ID/g) ([5]; 0 min after infusion): 4.6 ± 1.1 % ID/g; Heart (% ID/g) ([5]; 10 min after infusion, non-recirculated buffer): 3.1 ± 1.6 % ID/g; fraction of compound present at 0 minutes post infusion that remains at 10 minutes [5]: 68%; Heart:Buffer ([6]; buffer 3.0 μM): 3.3 ± 0.8; Heart ([6]; buffer 3.0 μM): 9.8 ± 2.3 nmol/g; Heart:Buffer ([6]; buffer 30 μM): 4.0 ± 1.7; Heart ([6]; buffer 30 μM): 120 ± 50 nmol/g; heart uptake relative to GdDTPA [6]: about 10 times
13 (QWTCSGDEYTWHCNYE; disulfide 4-13 (inferred)) [compound 13] | 78-85% | – | –
130 (WWACQKGRHDWEKCRWL; disulfide 4-14 (inferred)) [compound 130] | 32% | – | –
142 (QWTCSADEYTWHCNYE) [compound 142] | – | 6 | –
190 (GQWTCSGDEYTWHCNYE) [compound 190] | – | – | % Binding Collagen I Rat ([2]; chelate conjugates): 5%
Compound ID 803: dual peptide, gadolinium tetramer; bb-DTPA tetramer diacid coupled to N-terminus of SEQ ID NO. 264 peptide ({bb‑DTPA gadolinium tetramer}-GQWHCTTSFPHHYCLYG; disulfide 5-14 (inferred); reading uncertain; also: Gd complex) [dual peptide, gadolinium tetramer; 264 peptide] | – | – | fraction of compound present at 0 minutes post infusion that remains at 10 minutes [5]: 54%; heart uptake relative to GdDTPA [6]: about 7 times
171 (QWTCSGDEYTWHCNYE) [compound 171] | – | 6 | –
169 (QWTCSGDEYTWHCNYE) [compound 169] | – | 4 | –
39 (GWQCSGDASVWNCDWI; disulfide 4-13 (inferred)) [compound 39] | 6% | – | –
37 (LWNCHGTDANWKCVLN; disulfide 4-13 (inferred)) [compound 37] | 7% | – | –
165 (QWTCSGDEYTWHCNYE) [compound 165] | 2% | 4 | –
65 (KWECVHTKGEWYCETK; disulfide 4-13 (inferred)) [compound 65] | 7% | – | –
Q W T C S G D E Y T w H C N Y E (QWTCSGDEYT[dW]HCNYE; disulfide 4-13 (inferred)) [SEQ ID NO. 173] | – | – | Heart:Buffer ([6]; buffer 3.0 μM): 0.37 ± 0.08; Heart ([6]; buffer 3.0 μM): 1.1 ± 0.2 nmol/g; specific heart uptake (in words) ([6]; heart concentrations compared with GdDTPA): no specific uptake
167 (QWTCSGDEYTWHCNYE) [compound 167] | 4% | – | –
159 (YHACYQAGCWIW) [compound 159] | 7% | – | –
